The values below come from US20240400635A1.

The test addresses FGF receptor/BKL complex (human) (UniProt Q86Z14). The experiment in a line: cell-based or functional assay.

Sequence of FGF receptor/BKL complex (human) (Q86Z14 whole entry, one chain of several): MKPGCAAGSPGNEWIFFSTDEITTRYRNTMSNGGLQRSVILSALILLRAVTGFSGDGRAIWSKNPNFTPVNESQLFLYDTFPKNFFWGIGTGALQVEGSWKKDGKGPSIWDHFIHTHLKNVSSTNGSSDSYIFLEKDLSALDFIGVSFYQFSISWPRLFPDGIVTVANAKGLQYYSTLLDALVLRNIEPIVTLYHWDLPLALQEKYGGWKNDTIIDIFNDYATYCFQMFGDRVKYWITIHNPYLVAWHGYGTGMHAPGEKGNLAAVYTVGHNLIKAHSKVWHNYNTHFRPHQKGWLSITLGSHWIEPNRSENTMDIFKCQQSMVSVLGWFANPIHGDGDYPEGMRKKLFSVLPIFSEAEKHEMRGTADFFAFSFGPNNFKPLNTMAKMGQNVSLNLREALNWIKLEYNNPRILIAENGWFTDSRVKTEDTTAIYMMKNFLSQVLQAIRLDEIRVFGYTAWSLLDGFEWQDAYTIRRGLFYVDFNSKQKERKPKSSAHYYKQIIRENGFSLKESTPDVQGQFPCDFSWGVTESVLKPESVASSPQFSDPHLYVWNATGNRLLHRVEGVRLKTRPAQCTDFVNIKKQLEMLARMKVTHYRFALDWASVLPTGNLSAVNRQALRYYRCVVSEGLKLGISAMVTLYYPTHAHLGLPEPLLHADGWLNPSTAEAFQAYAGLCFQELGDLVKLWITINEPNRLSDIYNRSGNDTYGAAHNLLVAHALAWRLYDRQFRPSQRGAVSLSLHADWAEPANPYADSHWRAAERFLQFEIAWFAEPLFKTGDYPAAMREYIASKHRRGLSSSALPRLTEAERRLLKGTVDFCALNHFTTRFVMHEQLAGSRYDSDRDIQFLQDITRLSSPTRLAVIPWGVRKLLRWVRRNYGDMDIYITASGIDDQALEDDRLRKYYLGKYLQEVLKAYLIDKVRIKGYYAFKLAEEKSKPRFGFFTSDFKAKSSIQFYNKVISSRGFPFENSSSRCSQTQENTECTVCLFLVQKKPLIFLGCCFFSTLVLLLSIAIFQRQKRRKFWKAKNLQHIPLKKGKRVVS

“Met-FGF21 (Comparator) SEQ ID NO: 36 (from UniProt Q9NSA1 29-209) (ligand)”: the FGF1 receptor potency [EC50] nM 0.1% HSA was found to be 0.44 nM and the FGF21 receptor potency [EC50] nM 0% HSA was determined as 0.52 nM.
On the same counts, the results for “S{Beta-180}-[2-[2-[[2-[2-[2-[[2-[2-[2-[[(4S)-4-carboxy-4-(17-carboxyheptadecanoyl-amino)butanoyl]amino]ethoxy]ethoxy]acetyl]amino]ethoxy]ethoxy]acetyl]amino]-ethylamino]-2-oxoethyl]-Ala[Gln121,Leu168,Cys180]FGF21(1-181) (from UniProt Q9NSA1 28-209) (ligand)” are 10.1 nM and 2.5 nM.
